Measurements taken from article PMC10397247.
Blank lines part the entries; values can stand above or below the binder they belong to.

Legend:
Assay in all cases: two-hybrid library CCNG1;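 also: natural log of median RNA to DNA barcode read ratio; higher means stronger binding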
4H575-bN = molecular target: T1, 4H575-bN
T1 chain: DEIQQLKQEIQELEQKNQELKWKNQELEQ

4H683-bN = molecular target: T2, 4H683-bN
T2 chain: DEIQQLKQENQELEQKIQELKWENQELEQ

4H2702-bN = molecular target: T3, 4H2702-bN
T3 chain: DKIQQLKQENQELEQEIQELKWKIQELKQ

4H3010-bN = molecular target: T4, 4H3010-bN
T4 chain: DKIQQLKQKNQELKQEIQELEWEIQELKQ

4H170-bN = molecular target: T5, 4H170-bN
T5 chain: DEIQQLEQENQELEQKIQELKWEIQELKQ

4H346-bN = molecular target: T6, 4H346-bN
T6 chain: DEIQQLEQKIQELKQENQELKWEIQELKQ

4H953-bN = molecular target: T7, 4H953-bN
T7 chain: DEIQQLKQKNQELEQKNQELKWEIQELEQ

4H754-bN = molecular target: T8, 4H754-bN
T8 chain: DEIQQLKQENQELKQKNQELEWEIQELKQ

4H2673-bN = molecular target: T9, 4H2673-bN
T9 chain: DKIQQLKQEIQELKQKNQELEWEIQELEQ

4H1831-bN = molecular target: T10, 4H1831-bN
T10 chain: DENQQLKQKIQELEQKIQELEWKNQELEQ

4H2586-bN = molecular target: T11, 4H2586-bN
T11 chain: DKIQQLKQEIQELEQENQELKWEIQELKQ

4H918-bN = molecular target: T12, 4H918-bN
T12 chain: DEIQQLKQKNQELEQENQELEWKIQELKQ

4H112-bN = molecular target: T13, 4H112-bN
T13 chain: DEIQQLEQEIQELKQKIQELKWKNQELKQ

4H780-bN = molecular target: T14, 4H780-bN
T14 chain: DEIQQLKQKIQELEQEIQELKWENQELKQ

4H855-bN = molecular target: T15, 4H855-bN
T15 chain: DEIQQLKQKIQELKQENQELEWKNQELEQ

4H4073-bN = molecular target: T16, 4H4073-bN
T16 chain: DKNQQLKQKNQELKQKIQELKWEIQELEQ

4H3427-bN = molecular target: T17, 4H3427-bN
T17 chain: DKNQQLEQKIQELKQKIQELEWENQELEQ

4H3112-bN = molecular target: T18, 4H3112-bN
T18 chain: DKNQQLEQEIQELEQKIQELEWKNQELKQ

4H457-bN = molecular target: T19, 4H457-bN
T19 chain: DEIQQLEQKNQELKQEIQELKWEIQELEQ

4H3926-bN = molecular target: T20, 4H3926-bN
T20 chain: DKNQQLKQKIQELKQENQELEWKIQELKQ

4H1158-bN = molecular target: T21, 4H1158-bN
T21 chain: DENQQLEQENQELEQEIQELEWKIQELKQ

4H797-bN = molecular target: T22, 4H797-bN
T22 chain: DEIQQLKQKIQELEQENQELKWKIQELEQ

4H118-bN = molecular target: T23, 4H118-bN
T23 chain: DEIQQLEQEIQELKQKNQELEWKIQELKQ

4H2627-bN = molecular target: T24, 4H2627-bN
T24 chain: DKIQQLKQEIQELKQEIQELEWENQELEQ

4H968-bN = molecular target: T25, 4H968-bN
T25 chain: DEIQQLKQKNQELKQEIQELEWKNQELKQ

4H906-bA = molecular target: T26, 4H906-bA
T26 chain: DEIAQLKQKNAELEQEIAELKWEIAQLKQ

4H584-bA = molecular target: T27, 4H584-bA
T27 chain: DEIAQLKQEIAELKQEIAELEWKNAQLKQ

4H3172-bA = molecular target: T28, 4H3172-bA
T28 chain: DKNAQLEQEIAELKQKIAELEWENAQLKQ

4H1985-bA = molecular target: T29, 4H1985-bA
T29 chain: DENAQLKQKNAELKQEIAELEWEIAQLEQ

4H3414-bA = molecular target: T30, 4H3414-bA
T30 chain: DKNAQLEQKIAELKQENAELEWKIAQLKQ

4H1629-bA = molecular target: T31, 4H1629-bA
T31 chain: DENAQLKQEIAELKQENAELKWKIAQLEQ

4H1359-bA = molecular target: T32, 4H1359-bA
T32 chain: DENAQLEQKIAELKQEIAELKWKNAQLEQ

4H570-bA = molecular target: T33, 4H570-bA
T33 chain: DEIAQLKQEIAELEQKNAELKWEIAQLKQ

4H1393-bA = molecular target: T34, 4H1393-bA
T34 chain: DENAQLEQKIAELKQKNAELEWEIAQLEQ

4H3817-bA = molecular target: T35, 4H3817-bA
T35 chain: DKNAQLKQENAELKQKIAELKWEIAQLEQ

4H850-bA = molecular target: T36, 4H850-bA
T36 chain: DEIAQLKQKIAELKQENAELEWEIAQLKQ

4H3129-bA = molecular target: T37, 4H3129-bA
T37 chain: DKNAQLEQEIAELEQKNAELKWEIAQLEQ

4H3631-bA = molecular target: T38, 4H3631-bA
T38 chain: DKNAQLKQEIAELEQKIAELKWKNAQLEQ

4H619-bA = molecular target: T39, 4H619-bA
T39 chain: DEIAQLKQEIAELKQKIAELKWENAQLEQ

4H1449-bA = molecular target: T40, 4H1449-bA
T40 chain: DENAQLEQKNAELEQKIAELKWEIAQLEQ

4H1804-bA = molecular target: T41, 4H1804-bA
T41 chain: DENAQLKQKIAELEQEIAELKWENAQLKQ

4H3974-bA = molecular target: T42, 4H3974-bA
T42 chain: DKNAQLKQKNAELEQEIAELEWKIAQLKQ

4H3638-bA = molecular target: T43, 4H3638-bA
T43 chain: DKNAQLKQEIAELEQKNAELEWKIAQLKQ

4H1710-bA = molecular target: T44, 4H1710-bA
T44 chain: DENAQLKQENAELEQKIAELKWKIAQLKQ

4H477-bH = molecular target: T45, 4H477-bH
T45 chain: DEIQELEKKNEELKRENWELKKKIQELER

4H319-bH = molecular target: T46, 4H319-bH
T46 chain: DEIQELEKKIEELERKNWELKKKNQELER

4H2473-bH = molecular target: T47, 4H2473-bH
T47 chain: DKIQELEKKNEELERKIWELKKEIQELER

4H2717-bH = molecular target: T48, 4H2717-bH
T48 chain: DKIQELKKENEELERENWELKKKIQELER

4H348-bH = molecular target: T49, 4H348-bH
T49 chain: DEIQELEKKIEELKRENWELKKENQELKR

4H3057-bH = molecular target: T50, 4H3057-bH
T50 chain: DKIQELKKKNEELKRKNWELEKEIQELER

4H2223-bH = molecular target: T51, 4H2223-bH
T51 chain: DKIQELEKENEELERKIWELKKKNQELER

4H2915-bH = molecular target: T52, 4H2915-bH
T52 chain: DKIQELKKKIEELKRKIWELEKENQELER

4H2503-bH = molecular target: T53, 4H2503-bH
T53 chain: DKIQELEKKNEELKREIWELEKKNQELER

4H3277-bH = molecular target: T54, 4H3277-bH
T54 chain: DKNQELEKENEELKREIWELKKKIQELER

4H40-bH = molecular target: T55, 4H40-bH
T55 chain: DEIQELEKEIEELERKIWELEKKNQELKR

4H2588-bH = molecular target: T56, 4H2588-bH
T56 chain: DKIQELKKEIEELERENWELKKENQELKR

4H2438-bH = molecular target: T57, 4H2438-bH
T57 chain: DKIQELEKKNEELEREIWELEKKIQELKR

4H492-bH = molecular target: T58, 4H492-bH
T58 chain: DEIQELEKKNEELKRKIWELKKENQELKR

4H2134-bH = molecular target: T59, 4H2134-bH
T59 chain: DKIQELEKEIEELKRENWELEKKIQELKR

4H2692-bH = molecular target: T60, 4H2692-bH
T60 chain: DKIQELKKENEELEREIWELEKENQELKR

4H182-bH = molecular target: T61, 4H182-bH
T61 chain: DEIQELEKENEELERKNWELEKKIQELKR

4H741-bH = molecular target: T62, 4H741-bH
T62 chain: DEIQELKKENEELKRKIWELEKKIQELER

4H2143-bH = molecular target: T63, 4H2143-bH
T63 chain: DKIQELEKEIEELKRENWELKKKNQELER

4H2839-bH = molecular target: T64, 4H2839-bH
T64 chain: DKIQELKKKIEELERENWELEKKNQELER

interaction score (4H575-bN): -0.471 | interaction score (4H683-bN): -0.968 | interaction score (4H2702-bN): 0.834 | interaction score (4H3010-bN): 1.25 | interaction score (4H170-bN): -0.245 | interaction score (4H346-bN): -0.486 | interaction score (4H953-bN): -0.805 | interaction score (4H754-bN): -0.189 | interaction score (4H2673-bN): 0.592 | interaction score (4H1831-bN): 0.348 | interaction score (4H2586-bN): -1.21 | interaction score (4H918-bN): -0.456 | interaction score (4H112-bN): 1.46 | interaction score (4H780-bN): 0.755 | interaction score (4H855-bN): -0.582 | interaction score (4H4073-bN): 1.25 | interaction score (4H3427-bN): 1.06 | interaction score (4H3112-bN): 1.44 | interaction score (4H457-bN): 0.723 | interaction score (4H3926-bN): -1.67 | interaction score (4H1158-bN): 0.877 | interaction score (4H797-bN): -1.01 | interaction score (4H118-bN): -0.511 | interaction score (4H2627-bN): 1.22 | interaction score (4H968-bN): 0.452
B1: 4H112-bN (peptide)
chain: DEIQQLEQEIQELKQKIQELKWKNQELKQ

interaction score (4H906-bA): -0.601 | interaction score (4H584-bA): -0.341 | interaction score (4H3172-bA): -0.287 | interaction score (4H1985-bA): 0.768 | interaction score (4H3414-bA): -0.665 | interaction score (4H1629-bA): -0.732 | interaction score (4H1359-bA): 0.162 | interaction score (4H570-bA): -0.609 | interaction score (4H1393-bA): -0.644 | interaction score (4H3817-bA): -0.524 | interaction score (4H850-bA): -0.751 | interaction score (4H3129-bA): -0.77 | interaction score (4H3631-bA): 1.41 | interaction score (4H619-bA): -0.844 | interaction score (4H1449-bA): -0.804 | interaction score (4H1804-bA): -0.948 | interaction score (4H3974-bA): -0.0513 | interaction score (4H3638-bA): -0.492 | interaction score (4H1710-bA): -0.54
B2: 4H1359-bA (peptide)
chain: DENAQLEQKIAELKQEIAELKWKNAQLEQ

interaction score (4H477-bH): -0.331 | interaction score (4H319-bH): 0.27 | interaction score (4H2473-bH): 0.11 | interaction score (4H2717-bH): -0.508 | interaction score (4H348-bH): -0.493 | interaction score (4H3057-bH): 0.511 | interaction score (4H2223-bH): 0.341 | interaction score (4H2915-bH): 0.801 | interaction score (4H2503-bH): 0.0255 | interaction score (4H3277-bH): -0.523 | interaction score (4H40-bH): -0.335 | interaction score (4H2588-bH): -0.809 | interaction score (4H2438-bH): -0.311 | interaction score (4H492-bH): -0.775 | interaction score (4H2134-bH): 0.462 | interaction score (4H2692-bH): 1.16 | interaction score (4H182-bH): 0.517 | interaction score (4H741-bH): -0.207 | interaction score (4H2143-bH): 0.14 | interaction score (4H2839-bH): -0.281
B3: 4H182-bH (peptide)
chain: DEIQELEKENEELERKNWELEKKIQELKR
